T1: Halo-TRA2B RRM (UniProt P62995 111-201)
T1 sequence: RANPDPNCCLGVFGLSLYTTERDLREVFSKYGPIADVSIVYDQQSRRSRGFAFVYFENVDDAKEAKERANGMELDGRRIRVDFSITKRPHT


Experiments:
Details in all cases: protein: recombinant; tags: Halo (N-terminal 10xHis-TEV removed), OregonGreen on Halo; label: 3' CF 647 hydrazide (periodate-oxidized end); single-stranded
Halo-SAFB1 RRM [1] = target: T2, Halo-SAFB1 RRM (UniProt Q15424 386-485); assay: EMSA; protein 3.6-102.4 uM; lower affinity than TRA2B RRM; EMSA: 25 mM Tris-Cl pH 7.4, 50 mM KCl, 5% glycerol, 1 mM DTT, ~100 nM RNA, 30 min on ice, 8% native PAGE 0.5x TBE; pull-down: 25 mM Tris-Cl pH 7.4, ~75 mM KCl
T2 sequence (Q15424 386-485): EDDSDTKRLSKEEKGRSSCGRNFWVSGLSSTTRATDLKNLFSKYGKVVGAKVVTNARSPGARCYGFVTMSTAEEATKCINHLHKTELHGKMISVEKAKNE

Halo-TRA2B RRM [2] = target: T1, Halo-TRA2B RRM; assay: EMSA; protein 3.6-102.4 uM; clearly higher affinity than SAFB1 RRM; EMSA: 25 mM Tris-Cl pH 7.4, 50 mM KCl, 5% glycerol, 1 mM DTT, ~100 nM RNA, 30 min on ice, 8% native PAGE 0.5x TBE; pull-down: 25 mM Tris-Cl pH 7.4, ~75 mM KCl
Halo-SAFB1 RRM [3] = target: T2, Halo-SAFB1 RRM; assay: EMSA; protein 3.6-102.4 uM; barely affected by m6A; EMSA: 25 mM Tris-Cl pH 7.4, 50 mM KCl, 5% glycerol, 1 mM DTT, ~100 nM RNA, 30 min on ice, 8% native PAGE 0.5x TBE; pull-down: 25 mM Tris-Cl pH 7.4, ~75 mM KCl
Halo-TRA2B RRM [4] = target: T1, Halo-TRA2B RRM; assay: EMSA; protein 3.6-102.4 uM; lost all interactions; EMSA: 25 mM Tris-Cl pH 7.4, 50 mM KCl, 5% glycerol, 1 mM DTT, ~100 nM RNA, 30 min on ice, 8% native PAGE 0.5x TBE; pull-down: 25 mM Tris-Cl pH 7.4, ~75 mM KCl

Row | Binder | binding result (Halo-SAFB1 RRM [1]) | binding result (Halo-TRA2B RRM [2]) | binding result (Halo-SAFB1 RRM [3]) | binding result (Halo-TRA2B RRM [4])
1 | GGGAAGAAGAAGAAGAAGAAGAAGAU (ssRNA) [(AGA)x7 RNA, unmethylated] | binds | binds | – | –
2 | GGGAAGAAGAAGAAGAAGAAGAAGAU (ssRNA, all A are N6-methyladenosine) [(m6AGm6A)x7 RNA, methylated] | – | – | binds | no binding

From paper PMC10901741, “Autonomous transposons tune their sequences to ensure somatic suppression”
